{"source": "paper PMC8983682", "about": "(Nature Communications, 2022)", "target": "full-length N1-CA09-sNAp-130, membrane-anchored, C-terminal myc tag (Influenza A virus A/California/07/2009 …, UniProt C7FH46, stabilised)", "test": "flow cytometry on cells", "settings": "one partner purified", "data": [{"binder": "CD6 IgG (antibody, V domains shown, copies: 2 + 2) VH: QVKLQESGGGLVQPKGSLKLSCAASGFTFNTYAMNWVRQAPGKGLEWVARIRSKSNNYATFYADSVKDRFTISRDDSQSMLYLQMHNLKTDDTAMYYCVRPSIYYYASGYLDVWGAGTTVTVSS VL: QIVLSQSPAILSASPGEKVTMTCRTSSSVSYMHWYQQKPGSSPKPWIYATSNLASGVPFRFSGSGSGTSYSLTISRVEAEDAATYYCQQWNSNPPTFGGGTKLEIK", "values": [{"measurement": "binding result", "result": "binds"}]}]}
